For assay [1], the target named is human ghrelin O-acyltransferase (hGOAT), FLAG-tagged, wild type (human) (UniProt Q96T53).
The target of assay [2] is endogenous hGOAT of prostate cancer cells (human (endogenous in 22Rv1 and LNCaP)) (UniProt Q96T53). As to the kind of experiment: confocal imaging of fluorescent ligand binding and uptake by cells.

In assay [1], “H-GS-Dap-Nal-1-LSPTK(SulfoCy5)-NH2 (ligand 15) (peptide)” displayed an inhibition of hGOAT activity by ligand 15 of 17 nM. The substance further gave a percent of cells exhibiting ligand binding in assay [2] of 100%.

The record behind these values is doi:10.1101/2021.06.01.446150.
